Here are results for 5 molecules from patent US20190054182A1.

In assay [1] the target is T1, MPER binding peptide (Acetyl-[…]-Ttds-Lys-(Biotin)-NH2) (HIV-1).
The target in assay [2] is panel of 208 different HIV-1 Env-pseudotyped viruses. In words: cell-based or functional assay.
Assay [3] deals with 20 pseudotyped viruses representing 10 different HIV-1 clades. Nature of the assay: cell-based or functional assay.
Assay [4] concerns the target T1, MPER binding peptide …. In words: SPR (Biacore) with the MPER binding peptide.
Assay [5] deals with 20 pseudotyped viruses representing 10 different HIV-1 clades. In words: cell-based or functional assay. This is another data set of the same source.

Like-named read-outs stand apart in the source and are kept apart here.

B1: Binding Protein 2 (protein)
light 1: DFVLTQSPHSLSVTPGESASISCKSSHSLIHGDRNNYLAWYVQKPGRSPQLLIYLASSRASGVPDRFSGSGSDKDFTLKISRVETEDVGTYYCMQGRESPWTFGQGTKVDIKDKTHTASELTQDPAVSVALKQTVTITCRGDSLRSHYASWYQKKPGQAPVLLFYGKNNRPSGIPDRFSGSASGNRASLTITGAQAEDEADYYCSSRDKSGSRLSVFGGGTKLTVLDKTHTRTVAAPSVFIFPPSDEQLKSGTASVVCLLNNFYPREAKVQWKVDNALQSGNSQESVTEQDSKDSTYSLSSTLTLSKADYEKHKVYACEVTHQGLSSPVTKSFNRGEC
heavy 1: EVRLVESGGGLVKPGGSLRLSCSASGFDFDNAWMTWVRQPPGKGLEWVGRITGPGEGWSVDYAESVKGRFTISRDNTKNTLYLEMNNVRTEDTGYYFCARTGKYYDFWSGYPPGEEYFQDWGQGTLVIVSSDKTHTQVHLTQSGPEVRKPGTSVKVSCKAPGNTLKTYDLHWVRSVPGQGLQWMGWISHEGDKKVIVERFKAKVTIDWDRSTNTAYLQLSGLTSGDTAVYYCAKGSKHRLRDYALYDDDGALNWAVDVDYLSNLEFWGQGTAVTVSSDKTHTASTKGPSVFPLAPSSKSTSGGTAALGCLVKDYFPEPVTVSWNSGALTSGVHTFPAVLQSSGLYSLSSVVTVPSSSLGTQTYICNVNHKPSNTKVDKKVEPKSCDKTHTCPPCPAPELLGGPSVFLFPPKPKDTLMISRTPEVTCVVVDVSHEDPEVKFNWYVDGVEVHNAKTKPREEQYNSTYRVVSVLTVLHQDWLNGKEYKCKVSNKALPAPIEKTISKAKGQPREPQVYTLPPCRDELTKNQVSLWCLVKGFYPSDIAVEWESNGQPENNYKTTPPVLDSDGSFFLYSKLTVDKSRWQQGNVFSCSVLHEALHSHYTQKSLSLSPG
heavy 2: RAHLVQSGTAMKKPGASVRVSCQTSGYTFTAHILFWFRQAPGRGLEWVGWIKPQYGAVNFGGGFRDRVTLTRDVYREIAYMDIRGLKPDDTAVYYCARDRSYGDSSWALDAWGQGTTVVVSAASTKGPSVFPLAPSSKSTSGGTAALGCLVKDYFPEPVTVSWNSGALTSGVHTFPAVLQSSGLYSLSSVVTVPSSSLGTQTYICNVNHKPSNTKVDKKVEPKSCDKTHTCPPCPAPELLGGPSVFLFPPKPKDTLMISRTPEVTCVVVDVSHEDPEVKFNWYVDGVEVHNAKTKPREEQYNSTYRVVSVLTVLHQDWLNGKEYKCKVSNKALPAPIEKTISKAKGQPREPQVCTLPPSRDELTKNQVSLSCAVKGFYPSDIAVEWESNGQPENNYKTTPPVLDSDGSFFLVSKLTVDKSRWQQGNVFSCSVLHEALHSHYTQKSLSLSPG
light 2: YIHVTQSPSSLSVSIGDRVTINCQTSQGVGSDLHWYQHKPGRAPKLLIHHTSSVEDGVPSRFSGSGFHTSFNLTISDLQADDIATYYCQVLQFFGRGSRLHIKRTVAAPSVFIFPPSDEQLKSGTASVVCLLNNFYPREAKVQWKVDNALQSGNSQESVTEQDSKDSTYSLSSTLTLSKADYEKHKVYACEVTHQGLSSPVTKSFNRGEC
As for B1, in assay [1], the Ka is 1.65e+08 M⁻¹, the Kd turned out to be 6.05 nM, the koff was 0.000697 s⁻¹ and the kon stood at 115000 M⁻¹ s⁻¹. In assay [2], the Geometric Mean (IC80) stood at 0.028 µg/mL and the Median IC80 is 0.026 µg/mL. In addition, in assay [3], the Geometric Mean (IC80) was 0.222 µg/mL and the Median IC80 came to 0.375 µg/mL. The fold higher affinity than the MPER antibody in assay [4] was found to be 3.1 fold.

B2: Binding Protein 3 (protein)
light 1: ASELTQDPAVSVALKQTVTITCRGDSLRSHYASWYQKKPGQAPVLLFYGKNNRPSGIPDRFSGSASGNRASLTITGAQAEDEADYYCSSRDKSGSRLSVFGGGTKLTVLDKTHTDFVLTQSPHSLSVTPGESASISCKSSHSLIHGDRNNYLAWYVQKPGRSPQLLIYLASSRASGVPDRFSGSGSDKDFTLKISRVETEDVGTYYCMQGRESPWTFGQGTKVDIKDKTHTRTVAAPSVFIFPPSDEQLKSGTASVVCLLNNFYPREAKVQWKVDNALQSGNSQESVTEQDSKDSTYSLSSTLTLSKADYEKHKVYACEVTHQGLSSPVTKSFNRGEC
heavy 1: QVHLTQSGPEVRKPGTSVKVSCKAPGNTLKTYDLHWVRSVPGQGLQWMGWISHEGDKKVIVERFKAKVTIDWDRSTNTAYLQLSGLTSGDTAVYYCAKGSKHRLRDYALYDDDGALNWAVDVDYLSNLEFWGQGTAVTVSSDKTHTEVRLVESGGGLVKPGGSLRLSCSASGFDFDNAWMTWVRQPPGKGLEWVGRITGPGEGWSVDYAESVKGRFTISRDNTKNTLYLEMNNVRTEDTGYYFCARTGKYYDFWSGYPPGEEYFQDWGQGTLVIVSSDKTHTASTKGPSVFPLAPSSKSTSGGTAALGCLVKDYFPEPVTVSWNSGALTSGVHTFPAVLQSSGLYSLSSVVTVPSSSLGTQTYICNVNHKPSNTKVDKKVEPKSCDKTHTCPPCPAPELLGGPSVFLFPPKPKDTLMISRTPEVTCVVVDVSHEDPEVKFNWYVDGVEVHNAKTKPREEQYNSTYRVVSVLTVLHQDWLNGKEYKCKVSNKALPAPIEKTISKAKGQPREPQVYTLPPCRDELTKNQVSLWCLVKGFYPSDIAVEWESNGQPENNYKTTPPVLDSDGSFFLYSKLTVDKSRWQQGNVFSCSVLHEALHSHYTQKSLSLSPG
heavy 2: B1 heavy 2
light 2: B1 light 2
In assay [1], B2 had a Ka of 6e+07 M⁻¹, a Kd of 16.7 nM, an off-rate constant (koff) of 0.000779 s⁻¹ and a kon of 46700 M⁻¹ s⁻¹. Moreover, in assay [2], the Geometric Mean (IC80) was 0.051 µg/mL and the Median IC80 came to 0.045 µg/mL. In assay [3], the Geometric Mean (IC80) amounted to 0.287 µg/mL and the Median IC80 was 0.469 µg/mL.

B3: V1/V2 directed Ab “b” (antibody, V domains shown)
VH: QVQLVESGGGVVQPGTSLRLSCAASQFRFDGYGMHWVRQAPGKGLEWVASISHDGIKKYHAEKVWGRFTISRDNSKNTLYLQMNSLRPEDTALYYCAKDLREDECEEWWSDYYDFGKQLPCAKSRGGLVGIADNWGQGTMVTVSS
VL: QSVLTQPPSVSAAPGQKVTISCSGNTSNIGNNFVSWYQQRPGRAPQLLIYETDKRPSGIPDRFSASKSGTSGTLAITGLQTGDEADYYCATWAASLSSARVFGTGTKVIVL
In assay [5], B3 displayed a Geometric Mean (IC80) of 0.039 µg/mL and a Median IC80 of 0.051 µg/mL.

B4: MPER Ab (antibody, V domains shown)
VH: EVRLVESGGGLVKPGGSLRLSCSASGFDFDNAWMTWVRQPPGKGLEWVGRITGPGEGWSVDYAESVKGRFTISRDNTKNTLYLEMNNVRTEDTGYYFCARTGKYYDFWSGYPPGEEYFQDWGQGTLVIVSS
VL: ASELTQDPAVSVALKQTVTITCRGDSLRSHYASWYQKKPGQAPVLLFYGKNNRPSGIPDRFSGSASGNRASLTITGAQAEDEADYYCSSRDKSGSRLSVFGGGTKLTVL
Take B4: in assay [1], the Ka is 5.35e+07 M⁻¹, the Kd is 18.7 nM, the koff amounted to 0.00109 s⁻¹ and the kon came to 58500 M⁻¹ s⁻¹. Also, in assay [2], the Geometric Mean (IC80) stood at 1.34 µg/mL and the Median IC80 worked out at 1.69 µg/mL.

B5: V1/V2 directed Ab “a” (antibody, V domains shown)
VH: QVHLTQSGPEVRKPGTSVKVSCKAPGNTLKTYDLHWVRSVPGQGLQWMGWISHEGDKKVIVERFKAKVTIDWDRSTNTAYLQLSGLTSGDTAVYYCAKGSKHRLRDYALYDDDGALNWAVDVDYLSNLEFWGQGTAVTVSS
VL: DFVLTQSPHSLSVTPGESASISCKSSHSLIHGDRNNYLAWYVQKPGRSPQLLIYLASSRASGVPDRFSGSGSDKDFTLKISRVETEDVGTYYCMQGRESPWTFGQGTKVDIK
In assay [2], B5 gave a Geometric Mean (IC80) of 0.063 µg/mL and a Median IC80 of 0.037 µg/mL. In assay [3], this molecule displayed a Geometric Mean (IC80) of 0.094 µg/mL and a Median IC80 of 0.06 µg/mL.
